Tested on: human CD33
Test: Biacore SPR binding kinetics of anti-CD33 scFv-Fc clones with or without 10 µM MTX
Details: for koff, kinetics toward antigen with 0 µM MTX / kon, kinetics toward antigen with 0 µM MTX / koff, kinetics toward antigen with 10 µM MTX / kon, kinetics toward antigen with 10 µM MTX / Kd: 37° C., pH 7.4; for koff, kinetics toward antigen with 0 µM MTX / kon, kinetics toward antigen with 0 µM MTX / koff, kinetics toward antigen with 10 µM MTX / kon, kinetics toward antigen with 10 µM MTX: scFv-Fc; for koff, kinetics toward antigen with 10 µM MTX / kon, kinetics toward antigen with 10 µM MTX / Kd: 10 µM MTX; for Kd: koff/kon, or estimated from binding response / limit of detection for weak interactions, read-out: KD, kinetics toward antigen with 10 µM MTX
Excerpt: The first 4 rounds of panning used biotinylated CD33 antigen captured on streptavidin or neutravidin coated 96-well plates. […] 1536 clones were randomly chosen from the 4th and 5th round of panning against the CD33 antigen and their binding specificity determined by phage ELISA. Clones that specifically bound to CD33 were sequenced and all unique clones were subjected to a phage competition ELISA to assess their relative affinities to CD33 and sensitivity to MTX by measuring their binding strengths in the presence or absence of 10 µM (micromolar) MTX (i.e. in 0 or 10 µM MTX).
All binding kinetics analysis was performed on label-free Biacore surface plasmon biosensors (Biacore T200™ from GE Life Sciences) at 37° C. in 10 mM Hepes pH 7.4, 150 mM NaCl, 0.05% Tween-20 (HBST+), with or without 10 µM MTX. The Biacore data were processed in Biacore T200 Evaluation Software, and the data were double-referenced (Myszka, 1999, J Mol Recognit 12(5):279-284) and fit globally to a simple Langmuir with mass transport model to determine the equilibrium dissociation constant, KD, from the ratio of the kinetic rate constants (KD = koff/kon). In some cases the binding of antigen was very low (or not detectable) in the presence of 10 µM MTX and as a result kinetic rate constants could not be accurately determined. In these cases, a KD (or KD limit) was estimated based on the binding response at the highest analyte concentration tested or based on the typical limit of detection for a Biacore T200.

Molecule	affinity for CD33 in the presence of MTX as compared to absence (in words) (10 µM MTX vs 0 µM MTX)	times greater affinity for CD33 in the presence of 10 µM MTX as compared to in 0 µM MTX (CD33)	koff, kinetics toward antigen with 0 µM MTX (CD33)	kon, kinetics toward antigen with 0 µM MTX (CD33)	koff, kinetics toward antigen with 10 µM MTX (CD33)	kon, kinetics toward antigen with 10 µM MTX (CD33)	Kd (CD33)
P01_B02: anti-CD33 clone with increased affinity in presence of MTX; VH SEQ ID NO: 31, VL SEQ ID NO: 32 (antibody, V domains shown, Synthetic Antibody) VH: QVQLVESGGGLVQAGGSLRLSCAASRRSSRSWAMHWVRQAPGKGLEWVAVISYDGRLKYYADSVKGRFTISRDNAEYLVYLQMNSLRAEDTAVYYCAAADWYSGGGDALDIWGQGTLVTVSS VL: DIQMTQSPSSLSASVGDRVTITCRASQTIYNYLNWYQQKPGKAPKLLIYGASNLQSGVPSRFSGSGSGTDFTLTISSLQPEDFATYYCQQTYSSPTFGQGTKVEIK	increased affinity for CD33 in the presence of 10 µM MTX	about 10 times	0.0026 s⁻¹	140000 M⁻¹ s⁻¹	0.0006 s⁻¹	390000 M⁻¹ s⁻¹	–
P04_C09: anti-CD33 clone with conditional affinity; VH SEQ ID NO: 23, VL SEQ ID NO: 24 (antibody, V domains shown, Synthetic Antibody) VH: QVQLVESGGGLVQAGGSLRLSCAASRRSSRSWAMHWVRQAPGKGLEWVAVISYDGRLKYYADSVKGRFTISRDNAEYLVYLQMNSLRAEDTAVYYCAAEANESDSGGIDVWGQGTLVTVSS VL: DIQMTQSPSSLSASVGDRVTITCRASQTIGGYLNWYQQKPGKAPKLLIYAASSLQSGVPSRFSGSGSGTDFTLTISSLQPEDFATYYCQQGYSSGAFGQGTKVEIK	–	–	0.0018 s⁻¹	160000 M⁻¹ s⁻¹	0.0089 s⁻¹	44000 M⁻¹ s⁻¹	–
P08_C08: anti-CD33 clone with conditional affinity; VH SEQ ID NO: 27, VL SEQ ID NO: 28 (antibody, V domains shown, Synthetic Antibody) VH: QVQLVESGGGLVQAGGSLRLSCAASRRSSRSWAMHWVRQAPGKGLEWVAVISYDGRLKYYADSVKGRFTISRDNAEYLVYLQMNSLRAEDTAVYYCAAEGSGSTDGSGAIDVWGQGTLVTVSS VL: DIQMTQSPSSLSASVGDRVTITCRASQSIGSYLNWYQQKPGKAPKLLIYAASSLQSGVPSRFSGSGSGTDFTLTISSLQPEDFATYYCQQSYSSGSFGQGTKVEIK	–	–	0.0045 s⁻¹	63000 M⁻¹ s⁻¹	0.051 s⁻¹	94000 M⁻¹ s⁻¹	–
P16_E06: anti-CD33 clone with conditional affinity; VH SEQ ID NO: 29, VL SEQ ID NO: 30 (antibody, V domains shown, Synthetic Antibody) VH: QVQLVESGGGLVQAGGSLRLSCAASRRSSRSWAMHWVRQAPGKGLEWVAVISYDGRLKYYADSVKGRFTISRDNAEYLVYLQMNSLRAEDTAVYYCAAEGGDYPGTSDGGLDIWGQGTLVTVSS VL: DIQMTQSPSSLSASVGDRVTITCRASQSISNYLNWYQQKPGKAPKLLIYGASSLQSGVPSRFSGSGSGTDFTLTISSLQPEDFATYYCQQSYSAGTFGQGTKVEIK	–	–	0.011 s⁻¹	120000 M⁻¹ s⁻¹	0.087 s⁻¹	75000 M⁻¹ s⁻¹	–
P02_E08: anti-CD33 clone with conditional affinity; VH SEQ ID NO: 37, VL SEQ ID NO: 38; also as scFv in CAR (antibody, V domains shown, Synthetic Antibody, also as scFv in CAR) VH: QVQLVESGGGLVQAGGSLRLSCAASRRSSRSWAMHWVRQAPGKGLEWVAVISYDGRLKYYADSVKGRFTISRDNAEYLVYLQMNSLRAEDTAVYYCAASDYDGGGLFDLWGQGTLVTVSS VL: QSVLTQPPSASGTPGQRVTISCSGSNSNIGDNYVHWYQQLPGTAPKLLIYMNNQRPSGVPDRFSGSKSGTSASLAISGLRSEDEADYYCATWDDSLSGVVFGTGTKLTVL	–	–	0.01 s⁻¹	47000 M⁻¹ s⁻¹	–	–	> 0.726 µM
P03_H04: anti-CD33 clone with conditional affinity; VH SEQ ID NO: 39, VL SEQ ID NO: 40; also as scFv in CAR (antibody, V domains shown, Synthetic Antibody, also as scFv in CAR) VH: QVQLVESGGGLVQAGGSLRLSCAASRRSSRSWAMHWVRQAPGKGLEWVAVISYDGRLKYYADSVKGRFTISRDNAEYLVYLQMNSLRAEDTAVYYCAADPHDGYGGGPGFDYWGQGTLVTVSS VL: QSVLTQPPSASGTPGQRVTISCSGSSSNIGSNYVYWYQQLPGTAPKLLIYRSNQRPSGVPDRFSGSKSGTSASLAISGLRSEDEADYYCAAWDDTLSAVVFGTGTKLTVL	–	–	0.026 s⁻¹	72000 M⁻¹ s⁻¹	–	–	> 15.7 µM
P04_C05: anti-CD33 clone with conditional affinity; VH SEQ ID NO: 41, VL SEQ ID NO: 42 (antibody, V domains shown, Synthetic Antibody) VH: QVQLVESGGGLVQAGGSLRLSCAASRRSSRSWAMHWVRQAPGKGLEWVAVISYDGRLKYYADSVKGRFTISRDNAEYLVYLQMNSLRAEDTAVYYCAAGLPWTDYWGQGTLVTVSS VL: QSVLTQPPSASGTPGQRVTISCSGSNSNIGSNYVSWYQQLPGTAPKLLIYSNNQRPSGVPDRFSGSKSGTSASLAISGLRSEDEADYYCAAWDDRLSVVFGTGTKLTVL	–	–	0.0021 s⁻¹	83000 M⁻¹ s⁻¹	0.013 s⁻¹	45000 M⁻¹ s⁻¹	–
P02_C02: anti-CD33 reference clone, less than 2-fold MTX effect; VH SEQ ID NO: 11, VL SEQ ID NO: 12 (antibody, V domains shown, Synthetic Antibody) VH: QVQLVESGGGLVQAGGSLRLSCAASRRSSRSWAMHWVRQAPGKGLEWVAVISYDGRLKYYADSVKGRFTISRDNAEYLVYLQMNSLRAEDTAVYYCAAEGGMGLDPWGQGTLVTVSS VL: DIQMTQSPSSLSASVGDRVTITCRASQTISSYLNWYQQKPGKAPKLLIYAASNLHSGVPSRFSGSGSGTDFTLTISSLQPEDFATYYCQQSYSSGTFGQGTKVEIK	–	–	0.02 s⁻¹	92000 M⁻¹ s⁻¹	0.025 s⁻¹	110000 M⁻¹ s⁻¹	–
P01_A09: anti-CD33 clone with conditional affinity; VH SEQ ID NO: 3, VL SEQ ID NO: 4; tested as scFv-Fc (antibody, V domains shown) VH: QVQLVESGGGLVQAGGSLRLSCAASRRSSRSWAMHWVRQAPGKGLEWVAVISYDGRLKYYADSVKGRFTISRDNAEYLVYLQMNSLRAEDTAVYYCAAERPTSDGSTGGMDVWGQGTLVTVSS VL: DIQMTQSPSSLSASVGDRVTITCRASQSISSYLNWYQQKPGKAPKLLIYGASTLQSGVPSRFSGSGSGTDFTLTISSLQPEDFATYYCQQSYSSGTFGQGTKVEIK	–	–	0.017 s⁻¹	110000 M⁻¹ s⁻¹	–	–	–
P02_A10: anti-CD33 clone with conditional affinity; VH SEQ ID NO: 9, VL SEQ ID NO: 10 (antibody, V domains shown, Synthetic Antibody) VH: QVQLVESGGGLVQAGGSLRLSCAASRRSSRSWAMHWVRQAPGKGLEWVAVISYDGRLKYYADSVKGRFTISRDNAEYLVYLQMNSLRAEDTAVYYCAAESEWDTGGFDVWGQGTLVTVSS VL: DIQMTQSPSSLSASVGDRVTITCRASQSIGSYLNWYQQKPGKAPKLLIYSSSNLQSGVPSRFSGSGSGTDFTLTISSLQPEDFATYYCQQSYTSGTFGQGTKVEIK	–	–	0.044 s⁻¹	84000 M⁻¹ s⁻¹	–	–	> 9.02 µM
P02_D08: anti-CD33 clone with conditional affinity; VH SEQ ID NO: 13, VL SEQ ID NO: 14 (antibody, V domains shown, Synthtic Antibody; Synthetic Antibody) VH: QVQLVESGGGLVQAGGSLRLSCAASRRSSRSWAMHWVRQAPGKGLEWVAVISYDGRLKYYADSVKGRFTISRDNAEYLVYLQMNSLRAEDTAVYYCAAERGDGLDGNVGLDIWGQGTLVTVSS VL: DIQMTQSPSSLSASVGDRVTITCRASQSISKYLNWYQQKPGKAPKLLIYGASTLQSGVPSRFSGSGSGTDFTLTISSLQPEDFATYYCQQSYSSGTFGQGTKVEIK	–	–	0.0061 s⁻¹	61000 M⁻¹ s⁻¹	0.062 s⁻¹	88000 M⁻¹ s⁻¹	–

Source: patent US20230192839A1, “ANTIBODIES HAVING CONDITIONAL AFFINITY AND METHODS OF USE THEREOF” (PFIZER INC., priority 2017, published 2023)
